Data on three molecules can be found in article PMC4957108, “Impact of structural polymorphism for the Helicobacter pylori CagA oncoprotein on binding to polarity-regulating kinase PAR1b” (Scientific Reports, 2016).

What all share (conditions): both partners purified
For one assay, the target named is GST-CagA-4CM^W (Helicobacter pylori strain NCTC11637). The assay is described as follows: pull-down; quantitative GST pull-down: GST-CagA on beads in a range of concentrations, fixed low concentration of PAR1b (39–364)-FLAG, GST-binding buffer with 0.01% Triton-X, 20 min at 4 °C, unbound PAR1b in the supernatant quantified, binding to GST control subtracted; apparent KD.

The next assay concerns the target T1, CagA-2CM^W (Helicobacter pylori strain 26695, UniProt P55980 1-1186).
T1 construct: also called canonical Western ABC type CagA
T1 sequence (looked up): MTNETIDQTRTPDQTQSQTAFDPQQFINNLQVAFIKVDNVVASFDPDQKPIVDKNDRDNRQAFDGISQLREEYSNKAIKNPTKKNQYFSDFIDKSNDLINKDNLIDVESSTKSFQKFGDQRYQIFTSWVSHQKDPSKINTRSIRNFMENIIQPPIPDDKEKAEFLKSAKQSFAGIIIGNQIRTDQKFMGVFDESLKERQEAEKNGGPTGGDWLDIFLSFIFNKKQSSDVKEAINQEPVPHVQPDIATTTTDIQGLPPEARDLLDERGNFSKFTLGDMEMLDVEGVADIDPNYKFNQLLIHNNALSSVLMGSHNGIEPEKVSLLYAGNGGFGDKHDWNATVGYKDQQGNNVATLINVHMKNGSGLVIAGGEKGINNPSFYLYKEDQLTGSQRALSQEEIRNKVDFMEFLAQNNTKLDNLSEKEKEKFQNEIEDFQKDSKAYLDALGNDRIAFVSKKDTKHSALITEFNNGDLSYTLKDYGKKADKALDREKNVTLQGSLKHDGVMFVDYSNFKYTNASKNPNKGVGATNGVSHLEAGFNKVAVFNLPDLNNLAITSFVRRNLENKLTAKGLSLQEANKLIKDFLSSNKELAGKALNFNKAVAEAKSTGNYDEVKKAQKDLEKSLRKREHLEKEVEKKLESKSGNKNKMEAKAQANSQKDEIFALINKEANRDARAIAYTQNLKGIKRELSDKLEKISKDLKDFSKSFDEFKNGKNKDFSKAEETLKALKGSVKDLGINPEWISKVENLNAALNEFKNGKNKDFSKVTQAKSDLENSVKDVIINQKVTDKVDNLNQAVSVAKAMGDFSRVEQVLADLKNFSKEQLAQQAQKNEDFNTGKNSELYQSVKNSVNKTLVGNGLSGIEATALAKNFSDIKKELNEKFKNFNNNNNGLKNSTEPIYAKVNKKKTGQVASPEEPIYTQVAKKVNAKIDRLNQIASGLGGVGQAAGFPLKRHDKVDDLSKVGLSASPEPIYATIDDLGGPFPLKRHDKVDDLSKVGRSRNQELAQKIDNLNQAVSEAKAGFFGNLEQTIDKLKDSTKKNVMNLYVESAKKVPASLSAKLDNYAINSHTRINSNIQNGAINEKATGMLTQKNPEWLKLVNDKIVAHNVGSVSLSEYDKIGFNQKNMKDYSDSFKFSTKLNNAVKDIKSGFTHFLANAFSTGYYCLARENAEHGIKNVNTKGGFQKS
The assay is described as follows: SEC; Superdex 200 10/300 GL, HBS-P running buffer, 4 °C, 0.5 ml/min; CagA constructs alone or mixed with PAR1b (39–364) at a molar ratio of 1:1 or 1:2; fractions on SDS-PAGE, CBB bands quantified. (In general: In gel filtration, larger molecules generally elute earlier.)

The target of a further assay is GST-CagA-2CM^W (Helicobacter pylori strain 26695, UniProt P55980 1-1186). The assay is described as follows: pull-down; quantitative GST pull-down: GST-CagA on beads in a range of concentrations, fixed low concentration of PAR1b (39–364)-FLAG, GST-binding buffer with 0.01% Triton-X, 20 min at 4 °C, unbound PAR1b in the supernatant quantified, binding to GST control subtracted; apparent KD.

B1: PAR1b (39–364)-FLAG (domain or fragment)
chain: not shown
As to B1, in the assay with GST-CagA-4CM^W, the Kd stood at 2.43 nM.

B2: PAR1b (39–364) (domain or fragment)
chain: not shown
modifications: C-terminal 6xHis tag left out
A word on the stoichiometry N: it is a count of units in the complex or per binding partner. B2: the “stoichiometry N” value with CagA-2CM^W worked out at 2 PAR1b per CagA.

B3: PAR1b (39–364)-FLAG (domain or fragment)
chain: not shown
modifications: C-terminal FLAG-6xHis tag left out
In the case of B3, the Kd with GST-CagA-2CM^W worked out at 26.6 nM.
